Data: patent publication US20060253917A1 (published 2006)

Assays:
OsPN29969 aa 16-123 = target: T1, OsPN29969 aa 16-123 (Oryza sativa, UniProt A2XK00 17-123); assay: Y2H; output trait library
T1 construct: prey, AD fusion; also called Novel Protein PN29969, Similar to A. thaliana Unknown Protein BAB01990
T1 sequence: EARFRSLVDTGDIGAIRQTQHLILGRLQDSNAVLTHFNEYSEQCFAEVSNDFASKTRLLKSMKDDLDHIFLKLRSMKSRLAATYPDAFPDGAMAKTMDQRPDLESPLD
Method in brief: (§1)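 Using an automated, high-throughput yeast two-hybrid assay provided by Myriad Genetics Inc. (Salt Lake City, Utah), protein-protein interactions were detected. Against either the input trait or the output trait rice prey library, a bait clone encoding a defined amino-acid fragment of a rice protein was screened. The encoding sequences of the prey clones that were retrieved were then compared against databases by BLAST to identify the interacting proteins.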

OsPN25381 aa 30-218 = target: T2, OsPN25381 aa 30-218 (Oryza sativa, UniProt A3BV82 165-353); assay: Y2H; output trait library
T2 construct: prey, AD fusion; also called Protein 13357265 Putative CorA-like Mg2+ Transporter Protein
T2 sequence: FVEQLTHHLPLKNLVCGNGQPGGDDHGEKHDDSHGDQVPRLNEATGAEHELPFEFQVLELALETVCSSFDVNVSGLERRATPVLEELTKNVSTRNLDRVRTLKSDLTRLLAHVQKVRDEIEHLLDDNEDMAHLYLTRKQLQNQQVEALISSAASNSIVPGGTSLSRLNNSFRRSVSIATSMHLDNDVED
Method in brief: as §1

OsPN23390 aa 576-738 = target: T3, OsPN23390 aa 576-738 (Oryza sativa, UniProt Q7XPJ0 598-760); assay: Y2H; output trait library
T3 construct: prey, AD fusion
T3 sequence: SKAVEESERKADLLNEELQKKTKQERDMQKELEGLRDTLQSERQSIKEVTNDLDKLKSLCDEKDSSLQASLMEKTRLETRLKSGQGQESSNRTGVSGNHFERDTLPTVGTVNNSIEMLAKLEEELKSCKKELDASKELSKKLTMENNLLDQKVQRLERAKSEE
Method in brief: as §1

PN29970 aa 1-158 = target: T4, PN29970 aa 1-158 (Oryza sativa, UniProt A2WY50 120-277); assay: Y2H; output trait library
T4 construct: prey, AD fusion; also called Putative CorA-like Mg2+ Transporter Protein
T4 sequence: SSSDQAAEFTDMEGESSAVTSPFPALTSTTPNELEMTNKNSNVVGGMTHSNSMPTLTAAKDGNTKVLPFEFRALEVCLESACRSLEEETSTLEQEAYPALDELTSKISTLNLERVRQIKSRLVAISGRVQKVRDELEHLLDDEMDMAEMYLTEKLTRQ
Method in brief: as §1

OsPN29956 aa 2-373 = target: T5, OsPN29956 aa 2-373 (Oryza sativa, UniProt Q0JJ05 519-890); assay: Y2H; output trait library
T5 construct: prey, AD fusion
T5 sequence: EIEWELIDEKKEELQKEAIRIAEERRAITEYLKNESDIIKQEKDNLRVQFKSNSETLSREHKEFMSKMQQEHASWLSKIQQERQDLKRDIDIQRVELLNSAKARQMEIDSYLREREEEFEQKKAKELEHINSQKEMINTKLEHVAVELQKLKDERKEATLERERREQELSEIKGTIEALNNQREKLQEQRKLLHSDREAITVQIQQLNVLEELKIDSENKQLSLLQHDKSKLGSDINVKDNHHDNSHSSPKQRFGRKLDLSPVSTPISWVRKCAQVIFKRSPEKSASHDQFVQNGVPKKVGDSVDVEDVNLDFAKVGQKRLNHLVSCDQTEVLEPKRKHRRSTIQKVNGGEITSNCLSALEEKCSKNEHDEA
Method in brief: as §1

OsPN29965 aa 12-124 = target: T6, OsPN29965 aa 12-124 (Oryza sativa, UniProt Q6YZ52 874-986); assay: Y2H; output trait library
T6 construct: prey, AD fusion; also called Novel Protein PN29965, Fragment, Similar to A. thaliana Kinesin (Centromere Protein)-Like Heavy Chain-Like Protein
T6 sequence: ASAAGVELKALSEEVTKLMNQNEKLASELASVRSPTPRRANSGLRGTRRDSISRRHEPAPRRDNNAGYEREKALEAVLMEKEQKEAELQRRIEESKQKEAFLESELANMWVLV
Method in brief: as §1

OsPN29956 aa 96-235 = target: T7, OsPN29956 aa 96-235 (Oryza sativa, UniProt Q0JJ05 613-752); assay: Y2H; output trait library
T7 construct: prey, AD fusion; also called Novel Protein PN29956, Fragment, nuclear matrix constituent
T7 sequence: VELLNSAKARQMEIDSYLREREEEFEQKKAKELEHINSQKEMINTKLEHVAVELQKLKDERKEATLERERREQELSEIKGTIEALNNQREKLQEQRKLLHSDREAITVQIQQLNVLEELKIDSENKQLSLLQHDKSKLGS
Method in brief: as §1

OsPN23390 aa 595-845 = target: T8, OsPN23390 aa 595-845 (Oryza sativa, UniProt Q7XPJ0 617-867); assay: Y2H; output trait library
T8 construct: prey, AD fusion
T8 sequence: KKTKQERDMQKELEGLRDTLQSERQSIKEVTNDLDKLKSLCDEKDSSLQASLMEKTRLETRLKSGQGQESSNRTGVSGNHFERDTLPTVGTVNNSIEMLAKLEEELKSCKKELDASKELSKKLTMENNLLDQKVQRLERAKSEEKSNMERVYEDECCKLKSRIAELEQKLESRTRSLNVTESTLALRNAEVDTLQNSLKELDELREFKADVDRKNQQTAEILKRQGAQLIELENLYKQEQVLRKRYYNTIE
Method in brief: as §1

OsMADS6 aa 70-250 = target: T9, OsMADS6 aa 70-250 (Oryza sativa, UniProt Q6EU39 70-250); assay: Y2H; output trait library
T9 construct: prey, AD fusion; also called PN20233; O. sativa MADS box protein MADS6
T9 sequence: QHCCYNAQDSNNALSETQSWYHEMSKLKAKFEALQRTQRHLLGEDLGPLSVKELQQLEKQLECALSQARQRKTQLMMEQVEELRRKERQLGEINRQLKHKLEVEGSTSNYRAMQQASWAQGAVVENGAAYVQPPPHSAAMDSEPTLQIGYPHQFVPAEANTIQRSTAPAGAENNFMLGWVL
Method in brief: as §1

OsFDRMADS6 aa 93-244 = target: T10, OsFDRMADS6 aa 93-244 (Oryza sativa, UniProt P0C5B1 93-244); assay: Y2H; output trait library
T10 construct: prey, AD fusion; also called PN19766
T10 sequence: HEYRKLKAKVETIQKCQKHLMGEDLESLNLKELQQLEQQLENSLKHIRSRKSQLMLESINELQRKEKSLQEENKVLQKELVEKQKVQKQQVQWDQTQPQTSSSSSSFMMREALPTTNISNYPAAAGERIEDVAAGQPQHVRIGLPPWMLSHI
Method in brief: as §1

OsMADS1 aa 71-257 = target: T11, OsMADS1 aa 71-257 (Oryza sativa, UniProt A2XDY1 71-257); assay: Y2H; output trait library
T11 construct: prey, AD fusion; also called PN19788
T11 sequence: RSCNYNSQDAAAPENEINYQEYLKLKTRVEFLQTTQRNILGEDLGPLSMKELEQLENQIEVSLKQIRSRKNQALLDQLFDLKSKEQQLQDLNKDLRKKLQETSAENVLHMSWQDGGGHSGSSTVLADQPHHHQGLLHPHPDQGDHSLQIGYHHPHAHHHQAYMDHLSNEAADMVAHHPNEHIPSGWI
Method in brief: as §1

OsMADS1 aa 82-241 = target: T12, OsMADS1 aa 82-241 (Oryza sativa, UniProt A2XDY1 82-241); assay: Y2H; output trait library
T12 construct: prey, AD fusion; also called PN19788; O. sativa MADS box protein MADS1
T12 sequence: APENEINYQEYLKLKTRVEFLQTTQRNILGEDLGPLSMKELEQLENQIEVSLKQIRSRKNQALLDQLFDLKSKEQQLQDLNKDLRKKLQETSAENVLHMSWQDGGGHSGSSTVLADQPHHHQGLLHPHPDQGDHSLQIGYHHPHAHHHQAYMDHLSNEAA
Method in brief: as §1

OsRAP1B aa 1-158 = target: T13, OsRAP1B aa 1-158 (Oryza sativa, UniProt Q10CQ1 1-158); assay: Y2H; output trait library
T13 construct: prey, AD fusion; also called PN20232; O. sativa AP1-like MADS box protein RAP1B
T13 sequence: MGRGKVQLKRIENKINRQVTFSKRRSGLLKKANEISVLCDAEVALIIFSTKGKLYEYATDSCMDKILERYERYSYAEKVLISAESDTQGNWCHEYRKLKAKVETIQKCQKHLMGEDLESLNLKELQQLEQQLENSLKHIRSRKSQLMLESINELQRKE
Method in brief: as §1

OsS49462 aa 1-100 = target: T14, OsS49462 aa 1-100 (Oryza sativa, UniProt Q01J96 179-278); assay: Y2H; input trait library
T14 construct: bait, Gal4 DBD fusion; also called PN20325; O. sativa Cyclin OsS49462, Fragment
T14 sequence: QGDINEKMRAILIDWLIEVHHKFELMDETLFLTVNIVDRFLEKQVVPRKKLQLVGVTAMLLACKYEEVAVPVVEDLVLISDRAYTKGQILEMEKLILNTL
Method in brief: as §1

Os008938-3209 aa 53-259 = target: T15, Os008938-3209 aa 53-259 (Oryza sativa, UniProt Q06967 53-259); assay: Y2H; input trait library
T15 construct: prey, AD fusion; also called PN20215; O. sativa Putative 14-3-3 Protein
T15 sequence: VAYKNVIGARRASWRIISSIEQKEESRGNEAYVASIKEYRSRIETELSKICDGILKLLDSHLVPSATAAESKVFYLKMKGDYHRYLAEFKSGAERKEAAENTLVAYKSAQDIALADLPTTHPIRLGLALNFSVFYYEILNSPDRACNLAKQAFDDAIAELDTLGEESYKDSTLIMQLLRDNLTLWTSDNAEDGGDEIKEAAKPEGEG
Method in brief: as §1

Measured: binding result

B1: OsCYCOS2 aa 50-233 (other)
chain: KRGLLDKPAAKNQSGHRPMTRKFAATLANQPSIAPLAPIGSERQKRTADSAFHGPADMECTKITSDDLPLPMMSEMDEVMGSELKEIEMEDIEEAAPDIDSCDANNSLAVVEYVDEIYSFYRRSEGLSCVSPNYMLSQNDINEKMRGILIDWLIEVHYKLELLDETLFLTVNIIDRFLARENVV
notes: bait, Gal4 DBD fusion; also called PN20257; O. sativa Cyclin OsCYCOS2
binds: OsPN29969 aa 16-123 | OsPN25381 aa 30-218 | OsPN23390 aa 576-738 | PN29970 aa 1-158 | OsPN29956 aa 2-373 | OsPN29965 aa 12-124 | OsPN29956 aa 96-235 | OsPN23390 aa 595-845

B2: OsMADS45 aa 50-198 (other)
chain: NRGKLYEFCSTQSMTKTLEKYQKCSYAGPETAVQNRESEQLKASRNEYLKLKARVENLQRTQRNLLGEDLDSLGIKELESLEKQLDSSLKHVRTTRTKHLVDQLTELQRKEQMVSEANRCLRRKLEESNHVRGQQVWEQGCNLIGYERQ
notes: bait, Gal4 DBD fusion; also called PN20231; O. sativa MADS box protein MADS45
binds: OsMADS6 aa 70-250 | OsFDRMADS6 aa 93-244 | OsMADS1 aa 71-257 | OsMADS1 aa 82-241 | OsRAP1B aa 1-158

B3: OsPN30848 aa 365-476 (other)
chain: DCSLAKPPAADKKDDRVPLPSSNGAPLLPSYPPLGYGIMSVPGAYGAAPASTAQPMLYAPRAPPGAAMVPMMLPDGRLVYVVQQPGGQLPLASPPPQQAGHRSGSGGRHGGS
notes: prey, AD fusion
binds: OsS49462 aa 1-100

B4: OsCAA90866 aa 100-250 (other)
chain: GEMTERVAQEDRIPVLKASQDHLKEFISICEALELISEDELEISRQKNLIPWQIEEHRRLHGSSAKRLQKQSSRIKERKERRRRHESSCLSAPIELGGDLLRMMEKEREGMVSYYLIGSIEGFDLLDMLKKEEEIVPAVKEGKRRMVMHLL
notes: bait, Gal4 DBD fusion; also called PN20311; O. sativa Chilling-Inducible Protein CAA90866
binds: Os008938-3209 aa 53-259
